This note sets out measurements from patent publication US20260098059A1 (ENDOMET BIOSCIENCES, published 2026).

For assay [1], the target named is T1, β-catenin (UniProt P35222 134-665, limits assumed, biotinylated in the SPR and plate assays).
T1 sequence (looked up): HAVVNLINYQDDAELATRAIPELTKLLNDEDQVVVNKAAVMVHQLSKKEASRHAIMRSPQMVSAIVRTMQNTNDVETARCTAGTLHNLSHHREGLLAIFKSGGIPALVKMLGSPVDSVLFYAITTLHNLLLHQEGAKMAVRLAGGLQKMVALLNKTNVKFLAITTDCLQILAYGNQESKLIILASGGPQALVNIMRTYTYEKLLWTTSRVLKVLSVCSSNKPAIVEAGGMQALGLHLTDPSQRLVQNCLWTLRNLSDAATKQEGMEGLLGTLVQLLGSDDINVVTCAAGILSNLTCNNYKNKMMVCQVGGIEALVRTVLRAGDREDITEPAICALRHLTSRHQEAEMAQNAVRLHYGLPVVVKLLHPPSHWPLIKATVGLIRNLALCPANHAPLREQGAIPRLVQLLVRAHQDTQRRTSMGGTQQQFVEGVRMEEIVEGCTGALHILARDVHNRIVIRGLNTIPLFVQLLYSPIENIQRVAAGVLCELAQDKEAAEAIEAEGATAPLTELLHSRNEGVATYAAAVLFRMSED
Put plainly: cell-based or functional assay.

Assay [2] concerns the target T1, β-catenin. Put plainly: competitive FP. An outline of the steps: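 Competitive fluorescence polarization with inhibitor peptide serially diluted from 10 nM to 30 uM; polarization read at 470 nm excitation, 520 nm emission. Experiments performed three times.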

“And” between values parts separate entries of the source, which are not always exact repeats. Equal values may be shown once. Bridges are numbered along the chain shown (N, C = ends). Where no end group is shown, it is not given here. [ ]: non-standard residue; d: D form. NMeW = CN[C@@H](Cc1c[nH]c2ccccc12)C(=O)O; αMeS = C[C@](N)(CO)C(=O)O; NMeA = CN[C@@H](C)C(=O)O Where only a bound is given, the exact number is not on record here.

What is called Kd is the equilibrium constant for the complex coming apart. Higher therefore signals a looser complex. For H-W[NMeW]E[αMeS]ILDEHVQRVWG-NH2 [SEQ ID NO: 40], the “Wnt Reporter EC50” value with β-catenin [1] is over 30 µM. In the assay with β-catenin [2], this molecule gave a Kd of at most 0.4 µM.

B1: SEQ ID NO: 441 (peptide)
peptide: WAQKILDEHGQRVWG
HELM: PEPTIDE1{[ac].W.A.Q.K.I.L.D.E.H.[O=C([C@@H](N[*:1])C1CCCCC1)[*:2]].Q.R.V.W.G.[am]}$PEPTIDE1,PEPTIDE1,5:R3-9:R3$$$V2.0
SMILES: CC[C@H](C)[C@@H]1NC(=O)[C@@H](NC(=O)[C@H](CCC(N)=O)NC(=O)[C@H](C)NC(=O)[C@H](Cc2c[nH]c3ccccc23)NC(C)=O)CCCCNC(=O)CC[C@@H](C(=O)N[C@@H](Cc2c[nH]cn2)C(=O)N[C@H](C(=O)N[C@@H](CCC(N)=O)C(=O)N[C@@H](CCCNC(=N)N)C(=O)N[C@H](C(=O)N[C@@H](Cc2c[nH]c3ccccc23)C(=O)NCC(N)=O)C(C)C)C2CCCCC2)NC(=O)[C@H](CC(=O)O)NC(=O)[C@H](CC(C)C)NC1=O
Regarding B1, the “Wnt Reporter EC50” value with β-catenin [1] is over 30 µM. The molecule also displayed an equilibrium dissociation constant (Kd) in the assay with β-catenin [2] of at most 0.4 µM.
The corresponding values for EDPQKILDEHLQRVLK (not fully specified; H23C11C(O)NH-EDPQK*ILDE*HLQRVLK-NH2) [SEQ ID NO: 444] are over 30 µM and at most 0.4 µM.

B2: SEQ ID NO: 447 (peptide)
peptide: WAQKILDEHGQRVW
HELM: PEPTIDE1{[CCCCCCCCCCCC(=O)[*:2]].W.[meA].Q.K.I.L.D.E.H.[O=C([C@@H](N[*:1])C1CCCCC1)[*:2]].Q.R.V.W.[am]}$PEPTIDE1,PEPTIDE1,5:R3-9:R3$$$V2.0
SMILES: CCCCCCCCCCCC(=O)N[C@@H](Cc1c[nH]c2ccccc12)C(=O)N(C)[C@@H](C)C(=O)N[C@@H](CCC(N)=O)C(=O)N[C@H]1CCCCNC(=O)CC[C@@H](C(=O)N[C@@H](Cc2c[nH]cn2)C(=O)N[C@H](C(=O)N[C@@H](CCC(N)=O)C(=O)N[C@@H](CCCNC(=N)N)C(=O)N[C@H](C(=O)N[C@@H](Cc2c[nH]c3ccccc23)C(N)=O)C(C)C)C2CCCCC2)NC(=O)[C@H](CC(=O)O)NC(=O)[C@H](CC(C)C)NC(=O)[C@H]([C@@H](C)CC)NC1=O
As for B2, the “Wnt Reporter EC50” value in the assay with β-catenin [1] is at most 7.5 µM. Also, the Kd in the assay with β-catenin [2] is at most 0.4 µM.

B3: SEQ ID NO: 442 (peptide)
peptide: WXQKILDEHGQRVWG
HELM: PEPTIDE1{[ac].W.[O=C([C@@H]1CCCCN1[*:1])[*:2]].Q.K.I.L.D.E.H.[O=C([C@@H](N[*:1])C1CCCCC1)[*:2]].Q.R.V.W.G.[am]}$PEPTIDE1,PEPTIDE1,5:R3-9:R3$$$V2.0
SMILES: CC[C@H](C)[C@@H]1NC(=O)[C@@H](NC(=O)[C@H](CCC(N)=O)NC(=O)[C@@H]2CCCCN2C(=O)[C@H](Cc2c[nH]c3ccccc23)NC(C)=O)CCCCNC(=O)CC[C@@H](C(=O)N[C@@H](Cc2c[nH]cn2)C(=O)N[C@H](C(=O)N[C@@H](CCC(N)=O)C(=O)N[C@@H](CCCNC(=N)N)C(=O)N[C@H](C(=O)N[C@@H](Cc2c[nH]c3ccccc23)C(=O)NCC(N)=O)C(C)C)C2CCCCC2)NC(=O)[C@H](CC(=O)O)NC(=O)[C@H](CC(C)C)NC1=O
Turning to B3, in the assay with β-catenin [1], the “Wnt Reporter EC50” value is at most 7.5 µM. Besides, in the assay with β-catenin [2], the Kd was at most 0.4 µM.

B4: SEQ ID NO: 445 (peptide)
peptide: AQKILDEHGQRVW
HELM: PEPTIDE1{[ac].[meA].Q.K.I.L.D.E.H.[O=C([C@@H](N[*:1])C1CCCCC1)[*:2]].Q.R.V.W.[am]}$PEPTIDE1,PEPTIDE1,4:R3-8:R3$$$V2.0
SMILES: CC[C@H](C)[C@@H]1NC(=O)[C@@H](NC(=O)[C@H](CCC(N)=O)NC(=O)[C@H](C)N(C)C(C)=O)CCCCNC(=O)CC[C@@H](C(=O)N[C@@H](Cc2c[nH]cn2)C(=O)N[C@H](C(=O)N[C@@H](CCC(N)=O)C(=O)N[C@@H](CCCNC(=N)N)C(=O)N[C@H](C(=O)N[C@@H](Cc2c[nH]c3ccccc23)C(N)=O)C(C)C)C2CCCCC2)NC(=O)[C@H](CC(=O)O)NC(=O)[C@H](CC(C)C)NC1=O
Consider B4, for which, in the assay with β-catenin [1], the “Wnt Reporter EC50” value is > 22.5 µM and ≤ 30 µM. In the assay with β-catenin [2], the Kd is at most 0.4 µM.

B5: SEQ ID NO: 443 (peptide)
peptide: WXQKILDEHGQRVWG
HELM: PEPTIDE1{[ac].W.[Aib].Q.K.I.L.D.E.H.[O=C([C@@H](N[*:1])C1CCCCC1)[*:2]].Q.R.V.W.G.[am]}$PEPTIDE1,PEPTIDE1,5:R3-9:R3$$$V2.0
SMILES: CC[C@H](C)[C@@H]1NC(=O)[C@@H](NC(=O)[C@H](CCC(N)=O)NC(=O)C(C)(C)NC(=O)[C@H](Cc2c[nH]c3ccccc23)NC(C)=O)CCCCNC(=O)CC[C@@H](C(=O)N[C@@H](Cc2c[nH]cn2)C(=O)N[C@H](C(=O)N[C@@H](CCC(N)=O)C(=O)N[C@@H](CCCNC(=N)N)C(=O)N[C@H](C(=O)N[C@@H](Cc2c[nH]c3ccccc23)C(=O)NCC(N)=O)C(C)C)C2CCCCC2)NC(=O)[C@H](CC(=O)O)NC(=O)[C@H](CC(C)C)NC1=O
For B5, the “Wnt Reporter EC50” value with β-catenin [1] was > 7.5 µM and ≤ 15 µM. Also, in the assay with β-catenin [2], the Kd was at most 0.4 µM.

B6: SEQ ID NO: 438 (peptide)
peptide: W[NMeA]QSILDEHVQKVWG-NH2
modifications: lactam 8-12; not fully specified (N-terminus); printed as H17C8C(O)NH-W-NmeA-QSILDE*HVQK*VWG-NH2
B6: the “Wnt Reporter EC50” value with β-catenin [1] was at most 7.5 µM. For the same molecule, the Kd in the assay with β-catenin [2] is at most 0.4 µM.
In the same order, the values of WPQSILDEHGQKVWG (not fully specified; Lauroyl-NH-WPQSILDE*H-Chg-QK*VWG-NH2) [SEQ ID NO: 473] are at most 7.5 µM and at most 0.4 µM.

B7: SEQ ID NO: 439 (peptide)
peptide: W[NMeA]QSILDEHVQKVWG-NH2
modifications: lactam 8-12; not fully specified (N-terminus); printed as H23C11C(O)NH-W-NmeA-QSILDE*HVQK*VWG-NH2
On to B7, for which the “Wnt Reporter EC50” value with β-catenin [1] was > 7.5 µM and ≤ 15 µM. This molecule showed a dissociation constant (Kd) with β-catenin [2] of at most 0.4 µM.
WPQSILDEHGQKVWG (not fully specified; Ac-NH-WPQSILDE*H-Chg-QK*VWG-NH2) [SEQ ID NO: 472]: the “Wnt Reporter EC50” value with β-catenin [1] was > 7.5 µM and ≤ 15 µM. The molecule further yielded a dissociation constant (Kd) in the assay with β-catenin [2] of at most 0.4 µM.

B8: SEQ ID NO: 440 (peptide)
peptide: QKILDEHGQRVWG
HELM: PEPTIDE1{[ac].Q.K.I.L.D.E.H.[O=C([C@@H](N[*:1])C1CCCCC1)[*:2]].Q.R.V.W.G.[am]}$PEPTIDE1,PEPTIDE1,3:R3-7:R3$$$V2.0
SMILES: CC[C@H](C)[C@@H]1NC(=O)[C@@H](NC(=O)[C@H](CCC(N)=O)NC(C)=O)CCCCNC(=O)CC[C@@H](C(=O)N[C@@H](Cc2c[nH]cn2)C(=O)N[C@H](C(=O)N[C@@H](CCC(N)=O)C(=O)N[C@@H](CCCNC(=N)N)C(=O)N[C@H](C(=O)N[C@@H](Cc2c[nH]c3ccccc23)C(=O)NCC(N)=O)C(C)C)C2CCCCC2)NC(=O)[C@H](CC(=O)O)NC(=O)[C@H](CC(C)C)NC1=O
B8: the “Wnt Reporter EC50” value in the assay with β-catenin [1] is > 22.5 µM and ≤ 30 µM. Moreover, the Kd in the assay with β-catenin [2] is at most 0.4 µM.
